According to paper PMC13227277, “Targeting CIRP and IL-6R-mediated microglial inflammation to improve outcomes in intracerebral hemorrhage” (Journal of Advanced Research, 2025):

What was measured:
[1] = tested on: IL-6Rα/STAT3 pathway in microglia; assay: IL-6Rα expression and p-STAT3 in CIRP-stimulated microglia; format: cell-based, mouse; conditions: CIRP stimulation with or without TCC
Experimental: Brain tissues were fixed in paraformaldehyde, dehydrated, and sectioned at 30 µm using a microtome (CM1900UV, Leica, Germany). Sections were floated onto glass slides and left overnight at room temperature. For cultured cells, after discarding the medium, cells were washed twice with PBS, fixed with precooled 4 % PFA at 4 °C for 10 min, and washed three times with PBS (10 min each) on a shaker. Cells were permeabilized with 0.3 % Triton X-100 in PBS for 20 min, blocked with 5 % donkey serum for 1 h, and incubated overnight at 4 °C with primary antibodies (Iba-1, Rabbit polyclonal, Wako; NeuN, Millipore; GFAP, CST; MBP, Abcam; SMI32, Millipore). The next day, sections were brought to room temperature, washed three times with PBST (PBS + Tween-20), and incubated with secondary antibodies for 1 h in the dark. After three more PBST washes, samples were mounted with DAPI-containing medium and sealed. Fluorescence was visualized using a DM4000B microscope and images were captured with a Leica TCS SP8 confocal microscope. […]
(§1) Brain tissue adjacent to the hemorrhagic striatum was homogenized in lysis buffer with protease inhibitors. […] The supernatant was collected for protein quantification using the BCA method. […]

[2] = tested on: microglia; assay: Cytokine mRNA and release in CIRP-stimulated microglia (RT-qPCR, ELISA); format: cell-based, mouse
Experimental: ELISA was used to quantify CIRP, MD2, IL-6, and TNF-α concentrations in blood and cerebrospinal fluid samples. Samples were processed and stored under standardized conditions to preserve protein integrity. Each target protein was measured using commercial ELISA kits, following the manufacturer’s instructions: Mouse CIRBP ELISA Kit (CSB-EL005440MO, CUSABIO), Mouse TNF-α ELISA Kit (EK282, Lianke Bio), Mouse IL-6 ELISA Kit (CSB-E04639m, CUSABIO), and […].
Primary cortical neurons were isolated from embryonic day 16–18 (E16–E18) C57BL/6 mouse embryos as previously described, and cultured in Neurobasal medium supplemented with B27 and GlutaMAX (Gibco).Primary microglial cells were isolated from the cortices of neonatal (day 1) C57BL/6J mice. After disinfection with 75 % ethanol, the skin and skull were removed, and the brains were placed in ice-cold HBSS. The meninges were peeled off, the cortex was collected, and the hippocampus was discarded. Tissues were digested with 0.25 % trypsin at 37 °C for 12 min, centrifuged at 1200 rpm for 5 min, and resuspended in complete medium. The suspension was transferred to a T75 flask with 15 mL of complete medium. […]
To mimic ischemic conditions, neurons at DIV7 were subjected to OGD. […] The supernatants were collected for subsequent CIRP quantification. […]

[3] = tested on: STAT3; assay: STAT3 phosphorylation following CIRP and IL-6R interaction, western blot; format: cell-based; conditions: n = 6
Experimental: Cells were washed twice with PBS, lysed, and sonicated. After a 30-minute rest to ensure thorough lysis, the homogenate was centrifuged at 12,000 rpm at 4 °C for 15 min. The supernatant was collected for protein quantification using the BCA method. Samples were prepared at a concentration of 2 μg/μL, and 15 μL per well was loaded for gel electrophoresis. Proteins were transferred to membranes using a wet transfer method and blocked with 5 % non-fat milk. […] Membranes were incubated with primary antibodies overnight at 4 °C, followed by incubation with secondary antibodies (GAR-HRP, BIOSHARP; GAM-HRP, Jackson) at room temperature for 2 h. Membranes were washed three times with TBST and developed using a chemiluminescent substrate.

[4] = tested on: IL-6R-overexpressing HEK-293 T cells; assay: IL-6R mRNA/protein expression in IL-6R-overexpressing HEK-293 T cells; format: cell-based, human; conditions: CIRP 1 μg/mL for 24 h
Experimental: The overexpression plasmid for IL-6R was constructed by GenScript Biotech using a pcDNA3.1(+)-3xFLAG-P2A-EGFP vector with a broad-spectrum promoter, non-fusion EGFP fluorescence, and Neo (G418) resistance. The final construct was pcDNA3.1(+)-IL6r-3xFLAG-P2A-EGFP, and a control plasmid (pcDNA3.1(+)-3xFLAG-P2A-EGFP) was also generated.
HEK 293 T cells were cultured in six-well plates to 70–80 % confluence. Cells were divided into control and test groups. For transfection, solution A (plasmid diluted in Opti-MEM) and solution B (Lipofectamine 2000, Life Technologies, USA, diluted in Opti-MEM) were mixed at a 1:2 plasmid-to-lipofectamine ratio. After 6 h, the medium was replaced with DMEM, and GFP fluorescence was observed 24–48 h post-transfection to assess efficiency. Cells were divided into PBS, IL-6R, and CIRP (1 μg/mL for 24 h) groups for further analysis.
RNA was extracted using TRIzol reagent (Invitrogen, 210901). RNA was reverse transcribed into cDNA using Novagen's R323-01 100RXN. qRT-PCR was performed to determine the mRNA levels of Nos2, Tnf, Rela, Mcr1, Arg1, Cirbp, […] and Il6. […]
as §1

[5] = tested on: microglia; assay: IL-6 release from CIRP-stimulated microglia, ELISA (TCC vs TC); format: cell-based, mouse; conditions: peptides 10 μM pre-treated 0.5 h, then rmCIRP 1 μg/mL 24 h, n = 3
Experimental: To validate the effects of TCC and TC in vitro, microglial cells were pre-treated with the peptides (10 μM) for 0.5 h, followed by stimulation with recombinant mouse CIRP (rmCIRP, 1 μg/mL) for 24 h to establish an inflammation model.
ELISA was used to quantify CIRP, MD2, IL-6, and TNF-α concentrations in blood and cerebrospinal fluid samples. Samples were processed and stored under standardized conditions to preserve protein integrity. Each target protein was measured using commercial ELISA kits, following the manufacturer’s instructions: Mouse CIRBP ELISA Kit (CSB-EL005440MO, CUSABIO), Mouse TNF-α ELISA Kit (EK282, Lianke Bio), Mouse IL-6 ELISA Kit (CSB-E04639m, CUSABIO), and Rat TNF-α ELISA Kit (EK382, Lianke Bio).
After disinfection with 75 % ethanol, the skin and skull were removed, and the brains were placed in ice-cold HBSS. The meninges were peeled off, the cortex was collected, and the hippocampus was discarded. Tissues were digested with 0.25 % trypsin at 37 °C for 12 min, centrifuged at 1200 rpm for 5 min, and resuspended in complete medium. The suspension was transferred to a T75 flask with 15 mL of complete medium. After 14 days, microglial cells were harvested by shaking the flask at 270–280 rpm for 30 min, and the supernatant was collected. […] CIRP (1 μg/mL for 24 h) was added to the microglia, which were divided into PBS, CIRP, and CIRP + TCC groups. […]

B1: recombinant human CIRP (cold-inducible RNA-binding protein) (natural protein, UniProt Q14011 1-172, looked up)
chain: MASDEGKLFVGGLSFDTNEQSLEQVFSKYGQISEVVVVKDRETQRSRGFGFVTFENIDDAKDAMMAMNGKSVDGRQIRVDQAGKSSDNRSRGYRGGSAGGRGFFRGGRGRGRGFSRGGGDRGYGGNRFESRSGGYGGSRDYYSSRSQSGGYSDRSSGGSYRDSYDSYATHNE
notes: UniProtKB Q14011 is printed for the docking; also called rhCIRP; human CIRBP; source: recombinant
**Q.** What does the source list for B1?
**A.** IL-6Rα expression on microglia ([1]; immunofluorescence): IL-6Rα expression on the microglial membrane significantly increased; p-STAT3 level in microglia ([1]; western blot, n = 6): increase in the p-STAT3/GAPDH ratio compared to the PBS control group; TNF-α and IL-6 mRNA in microglia ([2]; 24-hour CIRP stimulation with or without TCC, RT-qPCR, n = 3–6): upregulated the transcription of pro-inflammatory cytokines TNF-α and IL-6 in microglia; TNF-α secretion by microglia ([2]; rmCIRP 1 μg/mL, 24 h, ELISA, n = 3): the secretion of TNF-α was markedly increased; phosphorylation of STAT3 [3]: induced phosphorylation of the STAT3; Il6 mRNA expression ([4]; qRT-PCR n = 3–6): did not show a significant change between groups; Il6ra mRNA and protein expression ([4]; qRT-PCR n = 3–6, western blot n = 9): significant upregulation of Il6ra mRNA and protein expression; IL-6 release in culture supernatants [5]: significantly increased IL-6 levels
